The data set deals with the molecule itself. Nature of the data set: crystal structure; AtGSTF2 (10 mg/mL) co-crystallised with small-molecule ligands 1-4 (5 or 10 mM); four structures at 2.00-2.77 Å; dimers in the asymmetric unit.

This note sets out measurements from paper PMC5292665, “Structural evidence for Arabidopsis glutathione transferase AtGSTF2 functioning as a transporter of small organic ligands” (FEBS Open Bio, 2016).

B1: Arabidopsis thaliana phi class glutathione transferase AtGSTF2 (enzyme)
chain: MAGIKVFGHPASIATRRVLIALHEKNLDFELVHVELKDGEHKKEPFLSRNPFGQVPAFEDGDLKLFESRAITQYIAHRYENQGTNLLQTDSKNISQYAIMAIGMQVEDHQFDPVASKLAFEQIFKSIYGLTTDEAVVAEEEAKLAKVLDVYEARLKEFKYLAGETFTLTDLHHIPAIQYLLGTPTKKLFTERPRVNEWVAEITKRPASEKVQ
notes: AtGSTF2, phi class glutathione transferase of Arabidopsis thaliana; no tag is named, and the protein was purified on GSH sepharose; also called phi class GST; source: E. coli Tuner (DE3) with pRARE, purified (GSH sepharose 4B, S75 Superdex gel filtration)
Turning to B1, the “stoichiometry N” value stood at 2.

What is called stoichiometry N is the number of molecules, sites or subunits per partner or assembly.
